Results on seven molecules are retold here after patent US20220363769A1 (SORRISO PHARMACEUTICALS, published 2022).

Read-outs that look alike come from different tables or passages of the source.

B3: ID-A62U (VHH)
VHH: DVQLVESGGGLVQAGGSLRLSCESSISTFSSDAMGWFRQAPGKELEFLAAIGWSGAVTHYSDSVKGRFTISRDNAKNTVYLQMNSLRAEDTGRYYCAEDYDTDVWQYWGQGTQVTVSS
notes: V7R-2E9 with E1D, R45L, Q65K, K87R, S88A; produced in S. cerevisiae
B5: human IL-7Rα (receptor)
chain: ESGYAQNGDLEDAELDDYSFSCYSQLEVNGSQHSLTCAFEDPDVNTTNLEFEICGALVEVKCLNFRKLQEIYFIETKKFLLIGKSNICVKVGEKSLTCKKIDLTTIVKPEAPFDLSVIYREGANDFVVTFNTSHLQKKYVKVLMHDVAYRQEKDENKWTHVNLSSTKLTLLQRKLQPAAMYEIKVRSIPDHYFKGFWSEWSPSYYFRTPEINNSSGEMD
notes: native receptor on human lymphocytes, monocytes and UC biopsy tissue in the cell assays; also called CD127
B6: ID-A59U (VHH)
VHH: DVQLVESGGGLVQAGGSLRLSCESSISTFSSDAMGWFRQAPGKEREFLAAIGWSGAVTHYSDSVKGRFTISRDNAKNTVYLQMNSLRAEDTGRYYCAEDYDTDVWQYWGQGTQVTVSS
notes: V7R-2E9 with E1D, Q65K, K87R, S88A; S. cerevisiae-expressed equivalent of ID-A40U
B7: cynomolgus monkey IL-7Rα (receptor)
chain: ESGYAQNGDLEDAELDDYSFSCYSQLEVNGSQHSLTCAFEDPDVNTTNLEFEICGALVEVKCLSFRKLQEIYFIETKKFLLIGKSNICVKVGGKSLTCKKIDLTTIVKPEAPFDLSVIYREGANDFVVTFNTSHLQKKYVKVLMHDVAYRQEKDENKWMHVNLSSTKLTLLQRNLQPEAMYEIKVRSIPDHYFKGFWSEWSPSYYFRTPEINNSPGEMD
notes: also called cynomolgus IL-7Rα

Experiment [1] has as its target T1, recombinant human IL-7Rα-His6-Fc (human, UniProt P16871 21-239).
T1 construct: also called hIL-7R; not shown: His6 tag; Fc (captured by anti-human IgG Fc)
T1 chain: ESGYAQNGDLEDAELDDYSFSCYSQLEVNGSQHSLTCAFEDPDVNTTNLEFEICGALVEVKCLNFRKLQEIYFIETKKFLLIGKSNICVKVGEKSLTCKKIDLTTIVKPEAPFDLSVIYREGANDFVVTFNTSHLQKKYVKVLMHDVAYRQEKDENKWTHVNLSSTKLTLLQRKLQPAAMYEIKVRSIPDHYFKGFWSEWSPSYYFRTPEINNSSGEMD
The experiment in a line: IL-7/IL-7R neutralisation ELISA; inhibition of IL-7 binding to IL-7R. As to the method:
A 7-point dilution series of the clones was prepared in 1% BSA (at 2× the assay concentration) starting at 300 nM and using a 3.2 dilution factor. […] Block buffer alone was also added to each plate as blank. […] TMB reaction was stopped after 30 minutes. […]

Experiment [2] has as its target T1, recombinant human IL-7Rα-His6-Fc. The experiment in a line: IL-7/IL-7Rα-His6-Fc ELISA; inhibition of IL-7 binding to IL-7R.
The target is the same in experiment [3]. As to the kind of experiment: TSLP/TSLPR/IL-7R ELISA; inhibition of L-TSLP/TSLP-R complex binding to plate-coated IL-7Rα-His6-Fc. The procedure: (§1) 96-well plates were coated with 0.25 μg/mL recombinant human IL-7Rα-His₆-Fc+ 5 μg/mL BSA and then blocked. […] Then the mixtures were incubated for 30 minutes to allow binding before adding to the IL-7Rα coated plates.

Experiment [4] concerns the target B5. The experiment in a line: cell-based or functional assay.
Experiment [5] has as its target T1, recombinant human IL-7Rα-His6-Fc. The experiment in a line: IL-7/IL-7R neutralising ELISA; inhibition of IL-7 binding to IL-7R. As to the method: (§2) A 7-point dilution series of the clones was prepared in 1% BSA (at 2× the assay concentration) starting at 300 nM and using a 3.2 dilution factor. […] Block buffer alone was also added to each plate as blank. […] TMB reaction was stopped after 30 minutes.
EC₅₀ values were generated in Graphpad prism using the ELISA signal blank corrected A450 data and ‘log(inhibitor) vs. response—Variable slope (four parameters)’ to fit curves and generate EC₅₀.

Experiment [6] concerns the target B5. The experiment in a line: cell-based or functional assay.
Experiment [7] deals with T1, recombinant human IL-7Rα-His6-Fc. The experiment in a line: IL-7/IL-7R neutralising ELISA; inhibition of IL-7 binding to IL-7R. As to the method: as §2
For experiment [8] the target is unchanged. The experiment in a line: IL-7/IL-7R neutralisation ELISA; inhibition of IL-7 binding to IL-7R.
Experiment [9] has the same target. The experiment in a line: TSLP/TSLPR/IL-7R ELISA; inhibition of L-TSLP/TSLP-R complex binding to plate-coated IL-7Rα-His6-Fc. As to the method:
as §1
A subtraction was performed on the data set before graphing which normalised to the highest concentration of antibody tested (to overcome a high level of background on the plate).

The target is the same in experiment [10]. As to the kind of experiment: IL-7/IL-7R neutralisation ELISA; inhibition of IL-7 binding to IL-7R.
The target of experiment [11] is B7. As to the kind of experiment: competition ELISA: A62U premixed with serially diluted soluble IL-7R, then added to plate-coated human IL-7Rα-His6-Fc; bound ICVD detected [right panel (cross-reactivity A62U]. The procedure: (§3) 96-well plates were coated with 0.5 μg/mL recombinant human IL-7Rα His₆-Fc +5 μg/mL BSA and then blocked. 0.5 nM of ICVD was mixed 1:1 with the test compounds of choice serially diluted in 1% BSA, then incubated for 30 minutes to allow binding before adding to the IL-7Rα coated plates. Following 2 hours incubation, bound ICVD was detected with 50 uL/well 1/20000 anti-FLAG-HRP Goat antibody (GeneTex, GTX21238), and the level of neutralisation of ICVD-IL-7Rα binding by the test compounds was determined.

The target in experiment [12] is T2, ID-A40U.
T2 construct: V7R-2E9 with Q65K, K87R, S88A; produced in E. coli; also called A40U-F/H; not shown: Flag-His6 tag
As to the kind of experiment: competition ELISA: ID-A40U premixed with serially diluted soluble IL-7R, then added to plate-coated human IL-7Rα-His6-Fc; bound ICVD detected. The procedure:
as §3

The target of experiment [13] is T2, ID-A40U. As to the kind of experiment: competition ELISA: ID-A40U premixed with serially diluted soluble receptor, then added to plate-coated human IL-7Rα; bound ICVD detected [right panel]. The procedure: as §3
The target of experiment [14] is T2, ID-A40U. As to the kind of experiment: competition ELISA: ID-A40U premixed with serially diluted soluble receptor, then added to plate-coated human IL-7Rα; bound ICVD detected [left panel]. The procedure:
as §3

Experiment [15] deals with B7. As to the kind of experiment: competition ELISA: A59U premixed with serially diluted soluble IL-7R, then added to plate-coated human IL-7Rα-His6-Fc; bound ICVD detected [left panel (cross-reactivity A59U]. The procedure:
as §3

For the experiment “ID-A59U”, the target named is B6. The description is as above. The procedure: as §3
The experiment “ID-A62U” concerns the target B3. As to the kind of experiment: competition ELISA: A62U premixed with serially diluted soluble IL-7R, then added to plate-coated human IL-7Rα-His6-Fc; bound ICVD detected [right panel (cross-reactivity A62U]. As to the method:
as §3

B1: V7R-2E9 (VHH)
VHH: EVQLVESGGGLVQAGGSLRLSCESSISTFSSDAMGWFRQAPGKEREFLAAIGWSGAVTHYSDSVQGRFTISRDNAKNTVYLQMNSLKSEDTGRYYCAEDYDTDVWQYWGQGTQVTVSS
notes: llama ICVD, primary clone, expressed in E. coli TG1; parent of the ID-A series; not shown: C-terminal FLAG and 6xHis tags from vector pMEK222
As to B1, the EC50 was 0.37 to 0.67 nM in experiment [1]; 0.6 nM in experiment [2]; 0.32 nM in experiment [3]; 0.368 nM in experiment [5]; 0.818 nM in experiment [7]; 0.818 nM in experiment [8]. The “IL-7 induced pSTAT5 in hPBMCs EC50” value with human IL-7Rα [4] and with human IL-7Rα [6] was 2.86 nM each time.

B2: V7R-4F6 (VHH)
VHH: EVQLVESGGGLVQAGGSLRLSCESSISTFGSDAMGWFRQAPGKEREFVAATGWSGAVTHYSDSVKGRFTISRDNAKNTVYLQMNSLKSEDTGTYYCAEDYDTDVWQYWGQGTQVTVSS
notes: llama ICVD, primary clone, expressed in E. coli TG1; not shown: C-terminal FLAG and 6xHis tags from vector pMEK222
For B2, the EC50 in experiment [5] was 0.259 nM.
With B3, the results for the half-maximal effective concentration (EC50) in [9] and in experiment [10] were 0.74 nM and 0.4 nM, respectively. Moreover, the binding result with cynomolgus monkey IL-7Rα [11] was “binds”.

B4: V7R-6C12 (VHH)
VHH: EVQLVESGGGLVQAGGSLRLSCESSISTFSSDAMGWFRQAPGKEREFLAAIGWSGAVTHYSDSVKGRFTISRDNAKNTVYLQMNSLKSEDTGRYYCAEDYVTDVWQYWGQGTQVTVSS
notes: llama ICVD, primary clone, expressed in E. coli TG1; also called IL-7R-6C12; not shown: C-terminal FLAG and 6xHis tags from vector pMEK222
Regarding B4, the EC50 in experiment [5] came to 0.416 nM.
Take B5: the “IC50 (read off the curve)” value was approximately 0.03 µg/mL with ID-A40U [12], approximately 0.02 µg/mL with ID-A40U [13] and approximately 0.02 µg/mL in the experiment with ID-A40U [14].
Consider B6, for which the binding result in the experiment with cynomolgus monkey IL-7Rα [15] is reported as “binds”.
B7: the “IC50 (read off the curve)” value with ID-A40U [12] was approximately 0.01 µg/mL; with ID-A59U, approximately 0.03 µg/mL; with ID-A62U it was approximately 0.02 µg/mL.
